These results are taken from patent US20250064910A1 (CHILDREN S MEDICAL CENTER, published 2025).

The target of the test is T1, IpgC (UniProt P0A2U4 1-155, limits assumed).
T1 construct: Co-expressed with Rhavi-IpaB in E. coli from pETDuet; also called chaperone IpgC
In words: co-expression in E. coli; chaperone retained with the His-tagged fusion on Ni-NTA until the detergent wash. On the procedure: DNA fragments encoding of His-SseB and SseA or His-IpaB and IpgC were synthesized and cloned into a pETDuet vector containing Rhavi by restriction enzyme digestion and ligation. Sequence-confirmed plasmids were transformed E. coli T7 shuffle express cells and transformants containing the relevant cloned proteins were grown to OD600=1 at 25° C., and protein expression was induced with 0.2 mM IPTG at 16° C. overnight. Cells were spun down and pellets were resuspended in lysis buffer (20 mM Tris-HCl, 500 mM NaCl, pH8.0) and then lysed by sonication. Supernatant was loaded over a Ni-NTA column and SseA or IpgC was washed off column with 0.05% LDAO in lysis buffer; proteins Rhavi-SseB and Rhavi-IpaB were eluted in imidazole buffer. Protein-containing elutions were combined, purified over a gel-filtration column for dimer fractions.

T1 sequence (P0A2U4 whole entry): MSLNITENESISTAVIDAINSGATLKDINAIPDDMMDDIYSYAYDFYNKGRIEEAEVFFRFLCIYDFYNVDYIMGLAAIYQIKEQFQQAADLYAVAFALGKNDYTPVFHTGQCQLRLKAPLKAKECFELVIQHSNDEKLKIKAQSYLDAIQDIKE

B1: Rhavi-IpaB (rhizavidin fused to Shigella IpaB) (other)
chain: FDASNFKDFSSIASASSSWQNQSGSTMIIQVDSFGNVSGQYVNRAQGTGCQNSPYPLTGRVNGTFIAFSVGWNNSTENCNSATGWTGYAQVNGNNTEIVTSWNLAYEGGSGPAIEQGQDTFQYVPTTENKSLLKDGGGSSHNVSTTTTGFPLAKILASTELGDNTIQAANDAANKLFSLTIADLTANQNINTTNAHSTSNILIPELKAPKSLNASSQLTLLIGNLIQILGEKSLTALTNKITAWKSQQQARQQKNLEFSDKINTLLSETEGLTRDYEKQINKLKNADSKIKDLENKINQIQTRLSELDPESPEKKKLSREEIQLTIKKDAAVKDRTLIEQKTLSIHSKLTDKSMQLEKEIDSFSAFSNTASAEQLSTQQKSLTGLASVTQLMATFIQLVGKNNEESLKNDLALFQSLQESRKTEMERKSDEYAAEVRKAEELNRVMGCVGKILGALLTIVSVVAAAFSGGASLALAAVGLALMVTDAIVQAATGNSFMEQALNPIMKAVIEPLIKLLSDAFTKMLEGLGVDSKKAKMIGSILGAIAGALVLVAAVVLVATVGKQAAAKLAENIGKIIGKTLTDLIPKFLKNFSSQLDDLITNAVARLNKFLGAAGDEVISKQIISTHLNQAVLLGESVNSATQAGGSVASAVFQNSASTNLADLTLSKYQVEQLSKYISEAIEKFGQLQEVIADLLASMSNSQANRTDVAKAILQQTTA
notes: also called IpaB fused to rhizavidin; Rhavi-IpaB carrier protein
Take B1: the binding result was “binds”.
